The results in this text go back to publication PMC10720262 (Cell Reports, 2023).

The target in test [1] is recombinant full-length PfCSP (Plasmodium falciparum circumsporozoite protein, strain NF54) (Plasmodium falciparum NF54, UniProt P19597).
The target of the next test is T1, NANP6 peptide (Plasmodium falciparum NF54).
T1 construct: source: synthetic peptide (CPC Scientific)
Nature of the test: SPR; Carterra LSA; mAb amine-coupled to a CMD200M chip, peptide titrated in 2-fold steps up to 8 ug/mL without regeneration; 25 C; HBSTE (10 mM HEPES pH 7.4, 150 mM NaCl, 3 mM EDTA, 0.01% Tween 20); 1:1 Langmuir model; mean of triplicates; KD includes avidity for antigens with several repeats. The note with it: both partners purified. (In general: In SPR one partner is held on a chip, and binding of the other changes the refractive index at the surface.)

Numbering of substitutions follows the chain as printed.

recombinant full-length PfCSP (Plasmodium falciparum circumsporozoite protein, strain NF54), sequence (P19597 20-375): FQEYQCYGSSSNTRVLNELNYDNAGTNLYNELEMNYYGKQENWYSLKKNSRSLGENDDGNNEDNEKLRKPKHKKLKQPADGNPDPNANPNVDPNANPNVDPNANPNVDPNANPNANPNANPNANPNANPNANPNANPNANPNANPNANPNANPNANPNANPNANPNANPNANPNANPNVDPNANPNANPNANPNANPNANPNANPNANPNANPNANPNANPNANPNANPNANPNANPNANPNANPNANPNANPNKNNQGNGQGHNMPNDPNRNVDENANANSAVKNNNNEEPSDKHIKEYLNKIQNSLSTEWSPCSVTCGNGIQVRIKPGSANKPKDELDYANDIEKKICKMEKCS

B1: CL-531237 (antibody, V domains shown)
VH: QVQLVESGGGVVQPGTSLRLSCVASGFTFSNFGIHWFRQAPGKGLEWVSLIWYDGKNKFYAESVTGRFTISRDNSKNTVYLQMSSLRAEDTAVYYCARSYYYDSGNYFDYWGQGTLVTVSS
VL: DIQMTQSPSSVSASVGDRITITCRASQGISSRLAWFQQKPGKAPNFLIYGTSSLQSGVPSRFSGSGSGTDFTLTISSLQPEDSATYYCQQANSYPWTFGQGTKVEIK
In the case of B1, the binding result in test [1] is given as “binds”.

B2: CL-515341 (antibody, V domains shown)
VH: QVYLVESGGGVVQPGKSLRLSCAASGFTFSNYGMHWVRQAPGKGLEWVAIIWHDGSNKFYSDSVRGRFTISRDNSQNTLYLQMNSLSAEDTALYFCAKDIGYSNTWDYFDYWGQGTLVTVSS
VL: EIVLTQSPATLSLSPGERATLSCRASQSVNSFLAWYQQKPGQAPRLLIYDASNRATDIPDRFSGSGSGTDFTLTIRSLEPEDFAVYFCQQRSKWFTFGGGTTVEMK
Consider B2, for which the binding result in test [1] is listed as “binds”.

B3: CL-513808 (antibody, V domains shown)
VH: QVQLVESGGGVVQPGRSLRLSCAASGFTFSNYGMHWVRQAPGKGLEWVAIIWYDGSNKFYADSVKGRFTISRDNSKNTLYLQMNSLRAEDTAVYYCARDDRGHSYGPYFDFWGQGTLVTVSS
VL: EIVMTQSPATLSVSPGERATLSCRASQSVSSNLAWYQQKPGQAPRLLIYGASIRATGIPARFSGSGSGTEFTLTISILQSEDFAVYYCQQCNNWPWTFGQGTKVEIK
Regarding B3, in test [1], the binding result is recorded as “binds”.

B4: CL-514716 (antibody, V domains shown)
VH: QIQLVESGGGVVQPGRSLRLSCAASGFTFSTYGMHWVRQAPGKGLEWVAVIWYDGSNKYYADSVQGRFTISRDNSKNTLYLQMNSLRAEDTAIYYCTTVGPIPFDYWGQGTLVTVSS
VL: DIVMTQTPLSSPVILGQPASISCRSSQSLVHSSGNTYLSWLQQRPGQPPRLLIYKTFKRLSGVPDRFSGSGAGTDFTLKISRVEAEDVGVYYCLQSTQFPLTFGGGTKVEIK
Consider B4, for which the binding result in test [1] is “binds”.

B5: Ky15.8 (antibody, V domains shown)
VH: QVQLVESGGNVVQPGRSLRLSCTASGFTFSSYGMHWVRQAPDKGLEWVAIIWYDGGNKFYADSVKGRFTISRDNSKDTLYLQMNSLRAEDTAVYYCAKAWYKIDDKYSMDVWGQGTTVTVSS
VL: not shown
notes: source: CHO-3E7, purified (MabSelect SuRe LX)
In turn, B5 registered a Kd with NANP6 peptide of at most 0.0312 nM.

B6: CL-513780 (antibody, V domains shown)
VH: QVQLVESGGGVVQPGRSLRLSCTASGFIFSNYGMYWVRQAPGKGLDWVALIWYDGSNKYYVGSVKGRFTISRDNSKNTLYLQMNSLRAEDTAVYYCARAGKYSGSGSYLDSWGQGTLVTVSS
VL: DIQMTPSPSILSASVGDRVTITCRASQNISSWLAWYQQKPGKAPKLLIYKASSLESGVPSRFSGSGSGTEFTLTISSLQPDDFATYFCQQYYSYWTFGQGTKVEIK
With B6, the binding result in test [1] is given as “binds”.

B7: CL-513809 (antibody, V domains shown)
VH: QVQLVESGGGVVQPGRSLRLSCAASGFIFSNYGMYWVRQTPDKGLEWVALIWYDGNNKFYSDSVKGRFTVSRDNSKNTLYLQMNSLRDEDTALYYCARAGYFYGSGSSLDKWGQGTLVTVSS
VL: B6 VL with P6Q, I10T, T20S, N28S, S31I, F87Y, Y92N
For the molecule B7, the binding result in test [1] is given as “binds”.

B8: CL-532151 (antibody, V domains shown)
VH: QVQLVESGGGVVQPGGSLRLSCAASGFTFSGSGMHWVRHAPGKGLEWVAIIWYDGSNKFYADSVKGRFTISRDNSRNTLYLQMNSLRAEDTAVYYCARAYVSGNYGDKYGMDVWGQGTTVTVSS
VL: B6 VL with P6Q, I10T, N28S, S31N, Y36F, S76N, Y92N, S93Y
With B8, the binding result in test [1] is recorded as “binds”.

B9: CL-531969 (antibody, V domains shown)
VH: B8 VH with G16R, G31S, H39Q, K43M, R76K, K108N
VL: B6 VL with P6Q, I10T, N28S, Y36F, S76N, Y92N, S93Y
In the case of B9, the binding result in test [1] is reported as “binds”.

B10: CL-532061 (antibody, V domains shown)
VH: QVQLVESGGGVVQPGRSLRLSCVASRFTFSNYGMHWVRQTPGKGLEWVAIIWYDGSNKFYGDSVKGRFTISRDNSRNTLYLQMNNLRAEDTAVYYCARAYDDFVDHDKYGMDVWGQGTTVTVSS
VL: B6 VL with P6Q, I10T, T22S, N28S, S31I, P40S, S53R, F87Y, Y92N
As for B10, the binding result in test [1] is “binds”.

B11: Ky15.11 (antibody, V domains shown)
VH: QVQLVESGGGVVQPGRSLRLSCEASGFTFSNFGMHWVRQTPVKGLEWVAIIWFDGSYKYYTDSVKGRFTISRDNSKNTLYLQMNSLRAEDTAVYYCARARKGQRSDYYGSETSYTFDNWGQGTLVTVSS
VL: B6 VL with P6Q, I10T, N28S, S30N, S31G, L46F, S53I, V58I, F87Y, Y92S
notes: as for B5
In the test with NANP6 peptide, B11 returned a Kd of at most 0.0357 nM.

B12: Ky15.7 (antibody, V domains shown)
VH: QVQVVESGGGAVQPGRSLRLSCAASGFTFSNRGMHWVRQTPGKGLEWVAIIWYDGGNKFYADSVKGRFTISRDNSKNTLYLQMNSLRDEDTAVYYCVRAGDWKADKYTMDVWGQGTTVTVSS
VL: B6 VL with P6Q, I10T, N28S, L46V, K50Q, F87Y, Y92N
notes: as for B5
For B12, the Kd with NANP6 peptide was determined as 0.113 nM.

B13: CL-515284 (antibody, V domains shown)
VH: QVQLVGSGGGVVQSGRSLRLSCAASGFTFSNFGMHWVRQTPDKGLEWLAIIWYDGSHKFYVDSVKGRFTISRDNSMNTLFLQMNSLRAEDTGVYYCVRSWNYADSKYGMDVWGQGTTVTVSS
VL: B6 VL with P6Q, I10T, N28S, K45N, F87Y, S93N
Consider B13, for which the binding result in test [1] is listed as “binds”.

B14: CL-514174 (antibody, V domains shown)
VH: B8 VH with G16R, A23V, H39Q, A40S, K65Q, R76K, A88V, A92G, V101L
VL: B6 VL with P6Q, I10T, N28S, Y36F, S76N, Y92N, S93Y
For B14, in test [1], the binding result is on record as “binds”.

B15: CL-531912 (antibody, V domains shown)
VH: B8 VH with Q1L, G16R, G31S, H39Q, R76K, N104S, Y105H
VL: B6 VL with P6Q, I10T, N28S, Y36F, S76N, Y92N, S93N
As to B15, the binding result in test [1] is listed as “binds”.

B16: CL-514146 (antibody, V domains shown)
VH: B8 VH with G16R, A24V, G31N, H39Q, S56N, R76K, A92S, V93I, V101P
VL: B6 VL with P6Q, I10T, N28S, Y36F, K42N, S76N, F87Y, Y92N, Y94F
Turning to B16, the binding result in test [1] is reported as “binds”.

B17: CL-531383 (antibody, V domains shown)
VH: QVQLVESGGGVVQPGRSLRLSCAASGFTFSSFGMHWVRQTPVKGLEWVALIWYDGSHKFYADSVRGRFIISRDNSKNTLFLQMNSLRAEDTAIYYCAKVINYGSGNYYNNYKYTMDVWGQGTTVTVSS
VL: B6 VL with P6Q, I10T, N28S, L46V, F87Y, Y92N, S93T
On to B17, for which the binding result in test [1] is “binds”.

B18: CL-531271 (antibody, V domains shown)
VH: QVQLVESGGGEVQPGRSLRLSCAASGFTFSNYGMHWVRQAPGKGLEWVALIWYDGNNKFYADSVNGRFTISRDNSNNTLYLQMNSLRAEDTGVYYCARSFYYVSGNFFDYWGQGTLVTVSS
VL: DIPMTQSPSSVSASVGDRVTITCRASQGISTWLAWYQQKPGKAPKFLIYAASSLQSGVPSRFSGSGSGTDFTLTIYSLQPEDFATYYCQQGNSFPWTFGQGTKVEIK
For B18, the binding result in test [1] is on record as “binds”.

B19: CL-531286 (antibody, V domains shown)
VH: QVQLVESGGGLVQPGRSLRLSCAASGFTFSSSGMHWVRQAPGKGLEWVAVIWYDGSNKFYADSVKGRFTISRDNSKNTLYLQMNSLRAEDTAVYYCARSGYDILTGYFNFFDPWGQGTLVTVSS
VL: EIVLTQSPGTLSLSPGERATLSCRASQSVSSSHLAWYQQKPGQAPRLLIYGASSRATGIPDRFSGSGSGTDFTLTISRLEPEDFAVYYCHQYVSSFTFGPGTKVDFK
For B19, the binding result in test [1] is listed as “binds”.

B20: Ky15.1 (antibody, V domains shown)
VH: QVQLVESGGGVVQPGRSLRLSCAASGFTFSNFGMHWVRQTPDRGLEWVAIIWFDGSNTFYADSVKGRFTISRDNYKNTLYLQMNSLRAEDTAVYFCARSFYSDSAGSLFDYWGQGTLVTVSS
VL: DIQMTQSPSTLSASVGDRVTITCRASQSISSWVAWYQQKPGKAPKLLIYKASDLETGVPSRFSGSGSGTEFTLTISGLQPDDFVTYYCLQNMRYWTFGQGTKVEIK
notes: as for B5
With B20, in the test with NANP6 peptide, the Kd came to 0.0384 nM.

B21: Ky15.10 (antibody, V domains shown)
VH: QVQLVESGGGVVQPGRSLRLSCAASGFTFSNSGMHWVRQVPGKGLEWVAIIWYDGSNKYYADSVKGRFSVSRDNSENTLYLQMSNLRAEDTAVYYCVRAYFDSENLYDYYGMDVWGQGTTVTVSS
VL: DIQMTQSPSTLSASVGDRVTITCRASQSISRWLAWFQKKPGKAPKLLIYTASNLESGVPSRFSGSGSGTEFTLTISSLQPDDFATYYCQQYYNYWTFGQGTKVEVK
notes: as for B5
Take B21: in the test with NANP6 peptide, the Kd amounted to 0.0153 nM.

B22: CL-531325 (antibody, V domains shown)
VH: B17 VH with Q3H, R16K, S31N, T40A, V42G, R65Q, I69T, N101S, G105V
VL: not shown
In the case of B22, the binding result in test [1] is on record as “binds”.

B23: Ky224 (antibody, V domains shown)
VH: QVQLVESGGGVVQPGRSLRLSCAASGFTFSVYGMHWVRQAPGKGLEWVAVIWYDGSNKIYADSVKGRFTISRDNSKNTLYLQMDSLSAADTAVYYCAKIGSSSFDYWGQGTLVIVSS
VL: DIVMTQTPLSSPVTLGQPASISCRSSQSLVHSNGITYLSWLQQRPGQPPRLLLYEISNRFSGVPDRFSGSGTGTDFTLKISRVEAEDVGVYYCMQTTQFPITFGQGTRLEIK
notes: as for B5
Turning to B23, the Kd in the test with NANP6 peptide turned out to be 1.34 nM.
